Literature values, collected in US6200966A, “Compositions for inhibiting airway wall inflammation” (Amrad Operations Pty. Ltd., priority 1996, dated 2001).

Test system: cultured airway smooth muscle
Details: various species

B1: PDGFBB: platelet-derived growth factor (protein, UniProt P01127 82-190, looked up)
Platelet-derived growth …: SLGSLTIAEPAMIAECKTRTEVFEISRRLIDRTNANFLVWPPCVEVQRCSGCCNNRNVQCRPTQVQLRPVQVRKIEIVRKKPIFKKATVTLEDHLACKCETVAAARPVT
mitogenic activity on airway smooth muscle: most effective proliferative agents
